Reference: patent US20190336574A1 (TRUSTEES OF PRINCETON UNIVERSITY, published 2019)

T1: murine SND1, wild type (mouse, UniProt Q78PY7 1-910)
T1 construct: Endogenous protein of murine PyMT mammary tumor cells; also called SND1 (in PyMT tumor cells); WT shRNA-resistant murine SND1
T1 sequence (looked up): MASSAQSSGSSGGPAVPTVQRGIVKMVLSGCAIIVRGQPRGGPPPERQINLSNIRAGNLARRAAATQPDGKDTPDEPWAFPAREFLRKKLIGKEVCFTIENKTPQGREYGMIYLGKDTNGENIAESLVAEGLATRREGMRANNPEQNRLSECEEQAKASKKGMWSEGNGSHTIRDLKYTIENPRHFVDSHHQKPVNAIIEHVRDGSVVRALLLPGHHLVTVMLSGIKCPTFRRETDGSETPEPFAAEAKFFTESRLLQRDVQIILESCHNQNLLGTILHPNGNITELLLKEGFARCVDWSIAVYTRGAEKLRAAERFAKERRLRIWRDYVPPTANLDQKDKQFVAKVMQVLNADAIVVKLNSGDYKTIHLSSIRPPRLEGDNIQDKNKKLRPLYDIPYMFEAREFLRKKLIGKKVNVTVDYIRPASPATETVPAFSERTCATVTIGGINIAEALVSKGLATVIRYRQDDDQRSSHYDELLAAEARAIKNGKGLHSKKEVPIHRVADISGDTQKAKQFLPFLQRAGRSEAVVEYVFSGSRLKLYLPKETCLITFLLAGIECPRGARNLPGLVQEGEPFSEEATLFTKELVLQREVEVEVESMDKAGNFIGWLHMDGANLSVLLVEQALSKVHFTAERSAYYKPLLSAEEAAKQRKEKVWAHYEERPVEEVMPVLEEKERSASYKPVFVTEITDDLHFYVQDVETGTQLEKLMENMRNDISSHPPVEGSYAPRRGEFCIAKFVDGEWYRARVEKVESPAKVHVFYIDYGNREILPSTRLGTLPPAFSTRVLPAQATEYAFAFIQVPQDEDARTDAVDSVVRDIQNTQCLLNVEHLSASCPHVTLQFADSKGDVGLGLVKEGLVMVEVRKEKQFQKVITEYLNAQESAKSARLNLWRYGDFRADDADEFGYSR

T2: HA-SND1, full-length human, wild type (human, UniProt Q7KZF4 1-910)
T2 construct: Full-length, HA-tagged; Expressed in HEK293T cells, tested in lysate; also called HA-tagged SND1; WT HA-SND1
T2 sequence: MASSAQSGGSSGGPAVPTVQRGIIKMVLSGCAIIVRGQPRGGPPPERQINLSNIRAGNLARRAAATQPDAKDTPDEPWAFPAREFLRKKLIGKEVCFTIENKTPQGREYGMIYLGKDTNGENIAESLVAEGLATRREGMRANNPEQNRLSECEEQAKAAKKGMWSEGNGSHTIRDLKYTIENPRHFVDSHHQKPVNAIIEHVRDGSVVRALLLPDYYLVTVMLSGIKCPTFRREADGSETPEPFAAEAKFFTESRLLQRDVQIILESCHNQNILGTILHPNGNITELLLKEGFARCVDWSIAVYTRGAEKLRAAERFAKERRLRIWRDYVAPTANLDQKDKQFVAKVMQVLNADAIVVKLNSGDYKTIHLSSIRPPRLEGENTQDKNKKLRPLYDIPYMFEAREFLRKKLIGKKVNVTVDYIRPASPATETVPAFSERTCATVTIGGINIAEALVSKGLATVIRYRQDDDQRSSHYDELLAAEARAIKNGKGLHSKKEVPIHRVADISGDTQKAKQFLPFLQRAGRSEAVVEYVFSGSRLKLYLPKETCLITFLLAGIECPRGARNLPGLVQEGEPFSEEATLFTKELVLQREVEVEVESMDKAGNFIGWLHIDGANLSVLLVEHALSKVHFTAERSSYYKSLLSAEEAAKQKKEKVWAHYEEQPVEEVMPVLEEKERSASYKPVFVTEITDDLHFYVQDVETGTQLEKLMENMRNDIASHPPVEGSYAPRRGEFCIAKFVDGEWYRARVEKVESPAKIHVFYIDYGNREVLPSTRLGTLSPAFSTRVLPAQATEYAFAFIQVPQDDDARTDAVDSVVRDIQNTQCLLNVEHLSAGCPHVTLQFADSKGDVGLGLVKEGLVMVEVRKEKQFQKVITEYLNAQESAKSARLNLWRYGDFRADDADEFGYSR

B1: murine MTDH TPM1 (D386R, D390R, W391D) (other, mouse, UniProt Q80WJ7 1-579, looked up)
chain: MAARSWQDELAQQAEEGSARLRELLSVGLGFLRTELGLDLGLEPKRYPGWVILVGTGALGLLLLFLLGYGWAAACAGARKKRRSPPRKREEAAPPTPAPDDLAQLKNLRSEEQKKKNRKKLPEKPKPNGRTVEVPEDEVVRNPRSITAKQAPETDKKNEKSKKNKKKSKSDAKAVQNSSRHDGKEVDEGAWETKISHREKRQQRKRDKVLTDSGSLDSTIPGIENIITVTTEQLTTASFPVGSKKNKGDSHLNVQVSNFKSGKGDSTLQVSSRLNENLTVNGGGWSEKSVKLSSQLSEEKWNSVPPASAGKRKTEPSAWTQDTGDTNANGKDWGRNWSDRSIFSGIGSTAEPVSQSTTSDYQWDVSRNQPYIDDEWSGLNGLSSARPSSRDNAPAEEWGNWVDEDRASLLKSQEPISNDQKVSDDDKEKGEGALPTGKSKKKKKKKKKQGEDNSHTQDTEDLEKDTREELPVNTSKARPKQEKACSLKTMSTSDPAEVLIKNSQPVKTLPPAISAEPSITLSKGDSDNSSSQVPPMLQDTDKPKSNAKQNSVPPSQTKSETNWESPKQIKKKKKARRET
notes: also called TPM1 (murine form)
B2: Myc-MTDH D389R, full-length human (other)
chain: MAARSWQDELAQQAEEGSARLREMLSVGLGFLRTELGLDLGLEPKRYPGWVILVGTGALGLLLLFLLGYGWAAACAGSRKKRRSPPRKREEAAAVPAAAPDDLALLKNLRSEEQKKKNRKKLSEKPKPNGRTVEVAEGEAVRTPQSVTAKQPPEIDKKNEKSKKNKKKSKSDAKAVQNSSRHDGKEVDEGAWETKISHREKRQQRKRDKVLTDSGSLDSTIPGIENTITVTTEQLTTASFPVGSKKNKGDSHLNVQVSNFKSGKGDSTLQVSSGLNENLTVNGGGWNEKSVKLSSQISAGEEKWNSVSPASAGKRKAEPSAWSQDTGDANTNGKDWGRSWSDRSIFSGIGSTAEPVSQSTTSDYQWDVSRNQPYIDDEWSGLNGLSSARPNSDWNAPAEEWGNWVDEERASLLKSQEPIPDDQKVSDDDKEKGEGALPTGKSKKKKKKKKKQGEDNSTAQDTEELEKEIREDLPVNTSKTRPKQEKAFSLKTISTSDPAEVLVKNSQPIKTLPPATSTEPSVILSKSDSDKSSSQVPPILQETDKSKSNTKQNSVPPSQTKSETSWESPKQIKKKKKARRET
notes: Full-length, Myc-tagged; also called SPM11
B3: Myc-MTDH W394D, full-length human (other)
chain: MAARSWQDELAQQAEEGSARLREMLSVGLGFLRTELGLDLGLEPKRYPGWVILVGTGALGLLLLFLLGYGWAAACAGSRKKRRSPPRKREEAAAVPAAAPDDLALLKNLRSEEQKKKNRKKLSEKPKPNGRTVEVAEGEAVRTPQSVTAKQPPEIDKKNEKSKKNKKKSKSDAKAVQNSSRHDGKEVDEGAWETKISHREKRQQRKRDKVLTDSGSLDSTIPGIENTITVTTEQLTTASFPVGSKKNKGDSHLNVQVSNFKSGKGDSTLQVSSGLNENLTVNGGGWNEKSVKLSSQISAGEEKWNSVSPASAGKRKAEPSAWSQDTGDANTNGKDWGRSWSDRSIFSGIGSTAEPVSQSTTSDYQWDVSRNQPYIDDEWSGLNGLSSADPNSDDNAPAEEWGNWVDEERASLLKSQEPIPDDQKVSDDDKEKGEGALPTGKSKKKKKKKKKQGEDNSTAQDTEELEKEIREDLPVNTSKTRPKQEKAFSLKTISTSDPAEVLVKNSQPIKTLPPATSTEPSVILSKSDSDKSSSQVPPILQETDKSKSNTKQNSVPPSQTKSETSWESPKQIKKKKKARRET
notes: Full-length, Myc-tagged; also called SPM13
B4: Myc-MTDH W401A, full-length human (other)
chain: MAARSWQDELAQQAEEGSARLREMLSVGLGFLRTELGLDLGLEPKRYPGWVILVGTGALGLLLLFLLGYGWAAACAGSRKKRRSPPRKREEAAAVPAAAPDDLALLKNLRSEEQKKKNRKKLSEKPKPNGRTVEVAEGEAVRTPQSVTAKQPPEIDKKNEKSKKNKKKSKSDAKAVQNSSRHDGKEVDEGAWETKISHREKRQQRKRDKVLTDSGSLDSTIPGIENTITVTTEQLTTASFPVGSKKNKGDSHLNVQVSNFKSGKGDSTLQVSSGLNENLTVNGGGWNEKSVKLSSQISAGEEKWNSVSPASAGKRKAEPSAWSQDTGDANTNGKDWGRSWSDRSIFSGIGSTAEPVSQSTTSDYQWDVSRNQPYIDDEWSGLNGLSSADPNSDWNAPAEEAGNWVDEERASLLKSQEPIPDDQKVSDDDKEKGEGALPTGKSKKKKKKKKKQGEDNSTAQDTEELEKEIREDLPVNTSKTRPKQEKAFSLKTISTSDPAEVLVKNSQPIKTLPPATSTEPSVILSKSDSDKSSSQVPPILQETDKSKSNTKQNSVPPSQTKSETSWESPKQIKKKKKARRET
notes: Full-length, Myc-tagged
B5: Myc-MTDH W394A, full-length human (other)
chain: MAARSWQDELAQQAEEGSARLREMLSVGLGFLRTELGLDLGLEPKRYPGWVILVGTGALGLLLLFLLGYGWAAACAGSRKKRRSPPRKREEAAAVPAAAPDDLALLKNLRSEEQKKKNRKKLSEKPKPNGRTVEVAEGEAVRTPQSVTAKQPPEIDKKNEKSKKNKKKSKSDAKAVQNSSRHDGKEVDEGAWETKISHREKRQQRKRDKVLTDSGSLDSTIPGIENTITVTTEQLTTASFPVGSKKNKGDSHLNVQVSNFKSGKGDSTLQVSSGLNENLTVNGGGWNEKSVKLSSQISAGEEKWNSVSPASAGKRKAEPSAWSQDTGDANTNGKDWGRSWSDRSIFSGIGSTAEPVSQSTTSDYQWDVSRNQPYIDDEWSGLNGLSSADPNSDANAPAEEWGNWVDEERASLLKSQEPIPDDQKVSDDDKEKGEGALPTGKSKKKKKKKKKQGEDNSTAQDTEELEKEIREDLPVNTSKTRPKQEKAFSLKTISTSDPAEVLVKNSQPIKTLPPATSTEPSVILSKSDSDKSSSQVPPILQETDKSKSNTKQNSVPPSQTKSETSWESPKQIKKKKKARRET
notes: Full-length, Myc-tagged

Experiments:
[1] = biological target: T1, murine SND1, wild type; test: co-IP (anti-MTDH) from reconstituted PyMT;Mtdh-/- tumor cells, western blot
Source text: IP lysates were subjected to western blotting with indicated antibodies.
In particular, genetic deletion of Mtdh in mice impairs the tumor-initiating potential of mammary epithelial cells transformed by diverse oncogenes (PyMT, Wnt, ErbB2) or carcinogen stimuli, and this defect can be readily rescued by reintroducing MTDH into Mtdh-knockout (Mtdh−/−) tumor cells by lentiviral transduction. To test whether interacting with SND1 is important for the tumor-initiating effect of MTDH, the murine form of WT or mutant MTDH (W394A or W401A, corresponding mutations in mouse are W391A, W398A) was stably expressed in mammary tumor cells from PyMT;Mtdh−/− mice. […] To examine how MTDH mutations affect tumor formation in vivo, PyMT;Mtdh−/− tumor cells were orthotopically transplanted into the mammary fat pads of WT recipient mice. […] Furthermore, the size of tumors formed by PyMT;Mtdh−/− tumor cells reconstituted with mutant MTDH was much smaller than that with WT MTDH (FIG. 23D-E).

[2] = biological target: T2, HA-SND1, full-length human, wild type; test: co-IP from HEK293T lysates (anti-HA per text, anti-Myc per legend), western blot
Description: Immunoprecipitation and western blot: For in vivo immunoprecipitation (IP) experiments, cultured cells were washed in cold PBS and lysed in lysis buffer (20 mM Tris pH 7.4, 0.15 M NaCl, 1 mM EDTA, 1 mM EGTA, 1% Tx-100, 0.0025 M Na2P2O7, 1 mM β-glycerolphosphate, 1 mM Na3VO4, and 1 mM NaF) with an EDTA-free protease inhibitor mixture (Roche Applied Science) and PMSF. Cell lysates were then incubated on ice for 10 min, centrifuged, and precleared by incubating with protein A/G beads (Santa Cruz Biotechnology) for 1 h at 4° C. For IP bead preparation, 30 μl of protein A/G beads were incubated with 5 μg of antibodies for 2 h at 4° C. IPs were carried out for overnight at 4° C., and beads were centrifuged, washed and subsequently boiled for 5 min in SDS protein loading buffer to elute bound protein. IP lysates were subjected to western blotting with indicated antibodies.
It was further examined how the MTDH and SND1 mutations identified at this interface affected the interaction of full-length proteins in mammalian cells. Full-length HA-tagged SND1 was co-expressed with full-length Myc-tagged wild-type (WT) or mutant MTDH in HEK293T cells and cell lysates were subjected to anti-HA immunoprecipitation for SND1 pull down. Consistent with in vitro observations (FIG. 22A), WT MTDH, but not mutants W394A, W394D, or W401A, was pulled down along with HA-SND1 (FIG. 22C, in red). […] Likewise, the SND1 mutations that affected MTDH-binding in vitro also affected the binding of full-length proteins in vivo to similar levels.

Row | Binder | binding result [1] | binding result [2]
1 | B1 | no binding | 
2 | B2 |  | binds
3 | B3 |  | no binding
4 | B4 |  | no binding
5 | B5 |  | no binding
